Measurements reported in patent US20070021595A1.

Columns and labels:
[1] = molecular target: HBV recombinant antigen GST-pre-S1(1-56) (hepatitis B virus); assay: competitive ELISA, pre-S1 antigen in solution and on plate
[2] = molecular target: HBV recombinant antigen GST-pre-S1(1-56) (hepatitis B virus); assay: competitive ELISA, GST-pre-S1(1-56) on plate, COS7 supernatant
[3] = molecular target: HBV recombinant antigen GST-pre-S1(1-56) (hepatitis B virus); assay: competitive ELISA as in Test Example 2, purified antibody from CHO cells
[4] = molecular target: HBV recombinant antigen GST-pre-S1(1-56) (hepatitis B virus); assay: competitive ELISA as in Test Example 2

B1: chimeric antibody chKR127 (wild type) (antibody, V domains shown)
VH: QVQLVQSGAEVKAPGASVKVSCKASGYTFTSAWMNWVRQAPGQGLEWMGRIYPSGGSTSYAQKFQGRVTMTADKSTSTVYMELSSLRSEDTAVYYCAREYRVARWGQGTLVTVSA
VL: DIVMTQTPLSLSVTPGQPASISCKSSQSLLYSNGKTYLNWLLQKPGQPPQRLIYLVSNRDSGVPDRFSGSGSGTDFTLKISRVEAEDVGVYYCVQGTHFPQTFGGGTKVEIK
B1 gave a Kd [1] of 8.2 nM and a Kd [2] of 11 nM.

B2: humanized antibody HuKR127 (antibody, V domains shown)
VH: B1 VH
VL: B1 VL
For B2, the Kd [3] was 0.16 nM and the fold higher affinity than the control group [3] was 50 fold.

B3: humanized antibody of humanized heavy chain HuKR127HC (HuKR127VH-VII) and humanized antibody HZKR127I light chain (antibody, part only; not given: Light chain, V domains shown, part only)
VH: B1 VH
With B3 the Kd [4] was 0.15 nM and the fold higher affinity than HZKR127I [4] was 50 fold.
